Residue numbers refer to the chain shown, from its start.
Columns and labels:
[1] = molecular target: T1, NGAL rAg Q117A displayed on yeast (human, UniProt P80188 21-198); test: flow cytometry, mAb titrated on yeast displaying NGAL
T1 construct: Yeast display AGA2 fusion as m5
T1 chain: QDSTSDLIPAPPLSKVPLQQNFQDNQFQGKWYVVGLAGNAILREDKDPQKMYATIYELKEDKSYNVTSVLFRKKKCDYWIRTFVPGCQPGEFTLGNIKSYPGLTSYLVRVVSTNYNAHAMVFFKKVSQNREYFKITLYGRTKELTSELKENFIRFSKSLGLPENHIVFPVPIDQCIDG
Method: (§1) The side chain of each of the NGAL rAg residues identified from the epitope selections was altered by site-directed mutagenesis to alanine to confirm the functional epitope (direct contact residues) of each NGAL mAb subclone.
(§2) The change in Gibbs free binding energy (ΔΔG_Ala-WT) was determined to assess the energetic impact of each alanine substitution for mAb binding. The change in Gibbs free binding energy upon alanine substitution was calculated using the following equation [2],
(§3) For these experiments, observed fluorescence (F) was used to solve for KD using equation [1]. The KD derived from equation [1] one was then used in equation [2] to derive the change in Gibbs free binding energy upon alanine substitution. The KD is read from the abscissa of each of the curves at the inflection point.

[2] = molecular target: T2, NGAL rAg H118A displayed on yeast (human, UniProt P80188 21-198); test: as above
T2 construct: Yeast display AGA2 fusion as m5
T2 chain: T1 chain with A117Q, H118A
Method: as §1, §2, §3

[3] = molecular target: T3, NGAL rAg S112A displayed on yeast (human, UniProt P80188 21-198); test: as above
T3 construct: Yeast display AGA2 fusion as m5
T3 chain: T1 chain with S112A, A117Q
Method: as §1, §2, §3

[4] = molecular target: T4, NGAL rAg E147A displayed on yeast (human, UniProt P80188 21-198); test: as above
T4 construct: Yeast display AGA2 fusion as m5
T4 chain: T1 chain with A117Q, E147A
Method: as §1, §2, §3

[5] = molecular target: T5, NGAL rAg A119G displayed on yeast (human, UniProt P80188 21-198); test: as above
T5 construct: Yeast display AGA2 fusion as m5
T5 chain: T1 chain with A117Q, A119G
Method: as §1, §2, §3

[6] = molecular target: T6, NGAL rAg K15A displayed on yeast (human, UniProt P80188 21-198); test: flow cytometry, mAb titrated on yeast displaying NGAL; highest mAb concentration tested listed as KD
T6 construct: Yeast display AGA2 fusion as m5
T6 chain: T1 chain with K15A, A117Q
Text: as §1, §3

[7] = molecular target: T7, NGAL rAg L159A displayed on yeast (human, UniProt P80188 21-198); test: flow cytometry, mAb titrated on yeast displaying NGAL
T7 construct: Yeast display AGA2 fusion as m5
T7 chain: T1 chain with A117Q, L159A
Method: as §1, §2, §3

[8] = molecular target: T8, NGAL rAg G160A displayed on yeast (human, UniProt P80188 21-198); test: as above
T8 construct: Yeast display AGA2 fusion as m5
T8 chain: T1 chain with A117Q, G160A
Method: as §1, §2, §3

[9] = molecular target: T9, NGAL rAg S158A displayed on yeast (human, UniProt P80188 21-198); test: as above
T9 construct: Yeast display AGA2 fusion as m5
T9 chain: T1 chain with A117Q, S158A
Method: as §1, §2, §3

B1: anti-NGAL monoclonal antibody 1-2322-455 (antibody, V domains shown)
VH: EVQLVESGGGLVQPGGSLKLSCAASGFTFNNYYMSWVRQTPERRLEWVAYISSSGGSTYYSDSVRGRFTISRDTARNTLYLQMTSLKSEDTAMYYCARHFGDYSYFDYWGQGTTLTVSS
VL: DIQMTQSPASLSASVGETVTITCRASENFYSYLAWYQQKQGKSPQLLVYNAKTLAEGVPSRFSGSGSGTQFSLKINSLQPEDFGTYYCQHHYDIPLTFGAGTKLELKR
- Kd [1]: 0.0307 nM
- ΔKD (KD against KD of WT) [1]: 3.79 fold
- ΔΔG Ala-WT [1]: 0.79 kcal/mol
- Kd [2]: 0.114 nM
- ΔKD (KD against KD of WT) [2]: 14.1 fold
- ΔΔG Ala-WT [2]: 1.56 kcal/mol
- Kd [3]: 0.0793 nM
- ΔKD (KD against KD of WT) [3]: 9.79 fold
- ΔΔG Ala-WT [3]: 1.35 kcal/mol
- Kd [4]: 492 nM
- ΔKD (KD against KD of WT) [4]: 61000 fold
- ΔΔG Ala-WT [4]: 6.5 kcal/mol
- Kd [5]: 0.00783 nM
- ΔKD (KD against KD of WT) [5]: 0.97 fold
- ΔΔG Ala-WT [5]: -0.02 kcal/mol

B2: anti-NGAL monoclonal antibody 1-903-430 (antibody, V domains shown)
VH: KIQLVQSGPELKKPGETVKISCKASGYTFTNYGMNWVKQAPGKGLKWMGWININTGEPTYAEEFKGRFAFSLETSATTAFLQINNLKNEDTATYLCARDSYSGGFDYWGQGTIVTVSS
VL: DIVMTQSPSSLSVSAGEKVTLSCKSSQSLLISGDQKNYLAWYQQKPGQPPKLLIYGASTRDSGVPDRFTGSGSGADFTLTISSVQAEDLAVYYCQNDHSFPPTFGAGTKLELKR
- Kd [6]: > 5000 nM
- Kd [7]: 0.137 nM
- ΔKD (KD against KD of WT) [7]: 0.67 fold
- ΔΔG Ala-WT [7]: -0.23 kcal/mol
- Kd [8]: 0.164 nM
- ΔKD (KD against KD of WT) [8]: 0.8 fold
- ΔΔG Ala-WT [8]: -0.13 kcal/mol
- Kd [9]: 0.242 nM
- ΔKD (KD against KD of WT) [9]: 1.19 fold
- ΔΔG Ala-WT [9]: 0.1 kcal/mol
